# Test results taken from the supplement of paper PMC9732359.
# ± gives the uncertainty stated by the source.
# Test: protein stability index of a GFP-peptide fusion (yeast GPS) (PSI 1-4); higher = more stable; sorted into four equal gates, so the index is relative within each strain
# Conditions: doa10∆
# How it was run: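 Each library plasmid carries Cherry plus GFP with a tiled 17-residue yeast protein peptide fused downstream, and the pooled library was carried in yeast. Mid-log cultures in leucine-free medium were sorted into four equal gates by GFP/Cherry ratio. Reads from Illumina sequencing of PCR-amplified plasmids from each gate were assigned to strains by barcodes. Per peptide, the protein stability index was computed as the summed products of gate read frequency and gate number.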
row,Sequence,protein stability index
1,RQFEVKQLQLAMHNSKA [POP1],1.95 ± 0.055
2,RQLANLIPFIVKQVLLS [NUT1],1.62 ± 0.032
3,RQNRNQEIFDANVQRLK [RPL13A],3.15 ± 0.078
4,RQPVEGRSRDGGLRFGE [RPB2],2.86 ± 0.29

# Same assay, conditions: pdr5∆
row,Sequence,protein stability index
1,QRRGPLVVYAEDNGIVK [RPL4A],3.14 ± 0.095
2,QRRYVIKEKVQFNATIN [ITC1],1.65 ± 0.033
3,QRTTTGARVFGALKGAS [RPL5],2.52 ± 0.2
4,QSAIRPAGQATQKRTHV [RPL4A],2.8 ± 0.091
5,QSALSQIIRLFYSKNRL [ISW2],2.49 ± 0.059
6,QSDLEIITQYVFESLEI [ARP9],3.12 ± 0.07
7,QSDSAKVEIKKVNSRDD [PRP28],3.44 ± 0.067
8,QSLLSLYFEIIHGVLKN [FAS2],1.84 ± 0.076
9,QSLNEMVKLIVMLCTLT [YJL039C/NUP192],2.63 ± 0.057
10,QSRLFINELVLENFKSY [SMC4],2.34 ± 0.049
11,QSSAIGALQESVEAYLV [HHT1],2.81 ± 0.087
12,QSTNLNRSAKNSKNDSA [YCS4],2.63 ± 0.05
13,QSTPVLLNHGERAELET [RPN1],2.31 ± 0.12
14,QTIMKMGPLSNIAQMIP [SRP54],2.67 ± 0.068
15,QTKDSVKEIVLPLFYDL [IRR1],2.4 ± 0.057
16,QTKRWPTMYTRLCICSG [SIN4],1.48 ± 0.038
17,QTLKGVGVENNGQYAAF [RPC37],3.31 ± 0.098
18,QTLSEKEYQCSAVIIDE [YIL149C/MLP2],3.03 ± 0.098
19,QTMQLIKNVQDLLILTR [SRB6],1.8 ± 0.091
20,QVASIIESFVELGVSIY [NUT2],2.98 ± 0.17
21,QVATKYASLKLPNQIPG [YMR129W/POM152],1.68 ± 0.041
22,QVEKLGKKMEARGQSIW [RPN9],1.14 ± 0.081
23,QVKKPRKQRVKKKTKKE [SWI1],3.37 ± 0.13
24,QVPDSLDDQIFVCEKSI [RPN6],3.19 ± 0.1

row,Sequence,protein stability index
1,QVRRDIPSAAFNFFEPI [YMR129W/POM152],2.23 ± 0.041
2,QVSINSNKILVYESEME [YIL149C/MLP2],3 ± 0.16
3,QVVTTVASQSPHATATE [SNF6],2.88 ± 0.079
4,QVVVDAITNTGPREDTT [RPS5],2.95 ± 0.058
5,QWLNNALKRSYGIFGEG [POP8],3.02 ± 0.059
6,QYATVSKTHKTVSRAYG [RPL34A],2.31 ± 0.055
7,RAASIRARVKAFPKDDR [RPL3],1.46 ± 0.051
8,RADTDLAMNDDDFLSKK [SNF2],3.59 ± 0.079
9,RAGVTHVLSRLSYISAL [RET1],1.26 ± 0.068
10,RAINKVLCTRLRLSNFF [SIR2],1.3 ± 0.059
11,RAQVLSLGDGTNYYLTT [CSL4],2.66 ± 0.05
12,RARKDRMRVSVLEKYEV [SSN3],2.65 ± 0.089
13,RATTYEKLTMVFQDNVY [SIN4],2.48 ± 0.051
14,RDDALVVETITSLLNKV [RRP42],2.83 ± 0.048
15,RDEMSKAELPQWYTLQS [MED8],3.12 ± 0.043
16,RDVMCTDGVIGSRTTTN [RPO31],3.48 ± 0.084
17,RDYQRINKNSKIALREY [POP4],2.29 ± 0.053
18,REAYIENFAKGEHISAI [SWP82],3.11 ± 0.089
19,REIDALKKQLHVSHEAM [YIL149C/MLP2],2.97 ± 0.047
20,REISNFSKGDADVLVDR [SRP72],3.19 ± 0.096
21,REKALNEEAEARRLKNR [RPL19A],3.15 ± 0.11
22,RELILAKKQNYKLTNDE [YCG1],3.35 ± 0.053
23,RELREVIELPLKNPEIF [RPT4],3.73 ± 0.27
